For the assay, the target named is BTN3A1 BFI (JM+B30.2) (Homo sapiens, UniProt O00481). Briefly: ITC. For orientation: Isothermal titration calorimetry measures the heat released or taken up as one component is titrated into another.

For orientation: Kd means the equilibrium constant for the complex coming apart. A lower Kd goes with higher affinity.

Sequence of BTN3A1 BFI (JM+B30.2) (O00481 272-513): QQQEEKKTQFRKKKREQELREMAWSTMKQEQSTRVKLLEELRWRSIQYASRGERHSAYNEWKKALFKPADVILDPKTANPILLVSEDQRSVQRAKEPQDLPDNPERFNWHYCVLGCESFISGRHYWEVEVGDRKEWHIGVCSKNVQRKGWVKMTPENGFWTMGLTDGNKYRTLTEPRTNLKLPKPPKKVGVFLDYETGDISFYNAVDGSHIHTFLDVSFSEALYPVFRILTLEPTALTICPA

B1: BTN2A1 ID271 (JM+B30.2) (protein)
chain: KLQKEKKILSGEKEFERETREIALKELEKERVQKEEELQVKEKLQEELRWRRTFLHAVDVVLDPDTAHPDLFLSEDRRSVRRCPFRHLGESVPDNPERFDSQPCVLGRESFASGKHYWEVEVENVIEWTVGVCRDSVERKGEVLLIPQNGFWTLEMHKGQYRAVSSPDRILPLKESLCRVGVFLDYEAGDVSFYNMRDRSHIYTCPRSAFSVPVRPFFRLGCEDSPIFICPALTGANGVTVPEEGLTLHRVGTHQSL
modifications: HMBPP
Regarding B1, binding was characterised by a dissociation constant (Kd) of 0.78 µM.

B2: BTN2A1 ID271 (JM+B30.2) (protein)
chain: KLQKEKKILSGEKEFERETREIALKELEKERVQKEEELQVKEKLQEELRWRRTFLHAVDVVLDPDTAHPDLFLSEDRRSVRRCPFRHLGESVPDNPERFDSQPCVLGRESFASGKHYWEVEVENVIEWTVGVCRDSVERKGEVLLIPQNGFWTLEMHKGQYRAVSSPDRILPLKESLCRVGVFLDYEAGDVSFYNMRDRSHIYTCPRSAFSVPVRPFFRLGCEDSPIFICPALTGANGVTVPEEGLTLHRVGTHQSL
modifications: 4-M-HMBPP
For B2, binding was put at a Kd of 190 µM.

Values taken from paper PMC10665462 (2023).
